{"source": "paper PMC9763423", "target": "JOSD1 (UniProt Q15040)", "assay": "co-immunoprecipitation, immunoblot", "conditions": "reference: Flag-MCL1 WT; sites S159", "data": [{"substance": "MCL-1 (from UniProt Q07820) Flag-MCL1 S159A", "values": [{"measurement": "binding against the reference", "value": "stronger"}]}]}
